For this test, the target named is Mouse FGFR4/β-klotho complex co-expressed in L6 cells (mouse) (UniProt Q03142). The experiment in a line: cell-based or functional assay.
Sequence of Mouse FGFR4/β-klotho complex co-expressed in L6 cells (mouse) (Q03142 17-799, chain 1 of 2): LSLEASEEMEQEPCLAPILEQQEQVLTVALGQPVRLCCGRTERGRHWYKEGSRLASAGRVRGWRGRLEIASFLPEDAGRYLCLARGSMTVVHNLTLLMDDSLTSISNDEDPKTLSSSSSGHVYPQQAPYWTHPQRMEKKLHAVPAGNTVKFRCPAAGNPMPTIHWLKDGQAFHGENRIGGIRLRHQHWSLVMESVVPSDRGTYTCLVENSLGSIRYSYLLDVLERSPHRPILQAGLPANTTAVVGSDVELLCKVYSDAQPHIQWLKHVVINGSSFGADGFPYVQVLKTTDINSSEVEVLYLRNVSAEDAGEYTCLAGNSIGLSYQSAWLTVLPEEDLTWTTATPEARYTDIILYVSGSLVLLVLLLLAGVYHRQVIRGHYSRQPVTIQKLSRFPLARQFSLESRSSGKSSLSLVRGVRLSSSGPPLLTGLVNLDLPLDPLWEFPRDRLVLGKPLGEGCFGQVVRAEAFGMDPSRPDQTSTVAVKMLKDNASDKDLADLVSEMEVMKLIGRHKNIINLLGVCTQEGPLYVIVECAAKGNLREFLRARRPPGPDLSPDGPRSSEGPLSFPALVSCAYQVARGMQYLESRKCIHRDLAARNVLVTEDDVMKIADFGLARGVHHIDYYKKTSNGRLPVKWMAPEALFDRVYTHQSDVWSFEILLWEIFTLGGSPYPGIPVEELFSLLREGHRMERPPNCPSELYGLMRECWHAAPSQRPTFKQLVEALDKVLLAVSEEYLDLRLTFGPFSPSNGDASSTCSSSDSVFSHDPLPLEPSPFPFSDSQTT
Sequence of Mouse FGFR4/β-klotho complex co-expressed in L6 cells (mouse) (Q99N32 whole entry, chain 2 of 2, further chain): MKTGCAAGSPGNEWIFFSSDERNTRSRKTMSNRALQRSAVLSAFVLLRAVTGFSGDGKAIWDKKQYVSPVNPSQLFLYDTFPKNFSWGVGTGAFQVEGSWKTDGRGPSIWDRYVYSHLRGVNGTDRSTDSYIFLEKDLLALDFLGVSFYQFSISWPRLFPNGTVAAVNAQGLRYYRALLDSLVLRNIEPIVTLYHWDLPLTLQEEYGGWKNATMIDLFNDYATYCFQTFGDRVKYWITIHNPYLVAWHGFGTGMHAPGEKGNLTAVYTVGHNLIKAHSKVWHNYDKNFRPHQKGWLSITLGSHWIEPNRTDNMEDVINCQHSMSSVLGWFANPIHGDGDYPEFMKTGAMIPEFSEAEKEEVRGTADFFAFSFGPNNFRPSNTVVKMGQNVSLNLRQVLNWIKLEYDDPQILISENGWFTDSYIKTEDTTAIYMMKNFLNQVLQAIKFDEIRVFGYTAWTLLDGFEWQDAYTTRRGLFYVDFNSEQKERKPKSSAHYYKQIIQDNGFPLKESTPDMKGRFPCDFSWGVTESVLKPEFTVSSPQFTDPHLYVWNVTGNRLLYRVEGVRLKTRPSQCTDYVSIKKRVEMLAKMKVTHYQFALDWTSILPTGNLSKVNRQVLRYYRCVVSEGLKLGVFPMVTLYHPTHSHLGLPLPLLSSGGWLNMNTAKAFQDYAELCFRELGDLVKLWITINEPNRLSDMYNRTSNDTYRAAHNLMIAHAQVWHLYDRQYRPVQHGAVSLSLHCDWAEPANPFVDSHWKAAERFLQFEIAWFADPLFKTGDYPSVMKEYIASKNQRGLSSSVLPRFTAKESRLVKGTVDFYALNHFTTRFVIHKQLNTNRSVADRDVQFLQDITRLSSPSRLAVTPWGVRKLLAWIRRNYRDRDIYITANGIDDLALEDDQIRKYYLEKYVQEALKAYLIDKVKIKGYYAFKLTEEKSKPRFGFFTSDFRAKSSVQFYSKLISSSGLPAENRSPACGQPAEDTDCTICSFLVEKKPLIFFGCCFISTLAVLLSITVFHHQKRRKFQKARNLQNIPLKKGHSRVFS

On to “FGF19 (wild type human fibroblast growth factor 19) (from UniProt O95750 23-216) (ligand)”, for which the EC50 (pM), ELK1 luciferase reporter in L6 cells was 52.5 pM and the Emax (fold potentiation), ELK1 luciferase reporter in L6 cells (fold potentiation) worked out at 1.82.
